The source of these data is article PMC7572768 (Biochemistry, 2020).

What all share (test): ELISA
For assay [1], the target named is cdMMP-14 P259 alanine mutant (Homo sapiens, UniProt P50281, P259 to Ala).
For assay [2], the target named is cdMMP-14 F198A (Homo sapiens, UniProt P50281, F198A).
Assay [3] deals with cdMMP-14 F260A (Homo sapiens, UniProt P50281, F260A).
Assay [4] addresses cdMMP-14 N231A (Homo sapiens, UniProt P50281, N231A).

Substitutions are numbered along the chain they refer to.

B1: Fab 3E2 (Fab, V domains shown)
VH: EVQLVESGGGLVQPGGSLRLSCAASGFNIYYYSIHWVRQAPGKGLEWVASIYPYSSYTYYADSVKGRFTISADTSKNTAYLQMNSLRAEDTAVYYCARGIKGLVFTGSQMKMLRRGNYNWYVMDYWGQGTLVTVSS
VL: DIQMTQSPSSLSASVGDRVTITCRASQSVSSAVAWYQQKPGKAPKLLIYSASSLYSGVPSRFSGSRSGTDFTLTISSLQPEDFATYYCQQSSYSLITFGQGTKVEIK
Regarding B1, the IC50 in assay [1] and in assay [2] was more than 900 nM each time.

B2: Fab 3E9 (Fab, V domains shown)
VH: EVQLVESGGGLVQPGGSLRLSCAASGFNLYYSSMHWVRQAPGKGLEWVASIYPSYGSTYYADSVKGRFTISADTSKNTAYLQMNSLRAEDTAVYYCARNGRYPGFLKRAHKRLLNFKAYVMDYWGQGTLVTVSS
VL: B1 VL with S91G, Y93W, S94Y
Take B2: the “fold increase in IC50 against cdMMP-14 wt” value in assay [3] stood at 33 fold.

B3: Fab 2B5 (Fab, V domains shown)
VH: EVQLVESGGGLVQPGGSLRLSCAASGFNLSYSSMHWVRQAPGKGLEWVASIYPYSGYTYYADSVKGRFTISADTSKNTAYLQMNSLRAEDTAVYYCARIGVNAWAVKMSQRMLATRGSGWYVMDYWGQGTLVTVSS
VL: DIQMTQSPSSLSASVGDRVTITCRASQSVSSAVAWYQQKPGKAPKLLIYSASSLYSGVPSRFSGSRSGTDFTLTISSLQPEDFATYYCQQSSSYPYSPITFGQGTKVEIK
Take B3: the “fold weakening of IC50 against cdMMP-14 wt” value in assay [4] worked out at 14 fold.

The term IC50 denotes the concentration needed to halve the response being measured. A low value points to higher potency.
